The data set in a line: soluble on expression in E. coli; label from the status in PepcDB or PDB records.
Regarding “MRGEKRTFEMLTNEVEYQHYRFSFANNPATAAGIFQLAEIELTVVADAPLVDFASNISRAEIGENVQFWDRSLANPTGWQWTFEDGEPATSTNRNPAVTFTSLGAKSVTLVASNDKGSNEKVQEQVVHIWDSQNPWAGYVKPTVTLVAHKPEHEGQIAFSRVMPDIEAVIHDISLQIVKVLYKDVAEAPLFKTVTFETDEYDFPAAKSGTDEDMILMMDVAHLANKAAEGDDALRDEVIGMLWHELTHGYNNSPNSGEYATGDEYHSYLESLANYMRIKAGFHESRRVGIKWVDNWNVDAYEQTSFFLEWVANSHRSVDFIYLFNKAAGDLKEWSFEAAFKSIFGEDKGVSIFWQEYHDAQGIEPPYPTPVDGYRNFAVDEGVSISTNATTVIIPDWDAYEGEDKLIDNNVTKKFNAFIEGTWWLEEHASHLFPINDITNVEVTFELPDAIVLHKYSVTTGNDNPQRDPTLWTISGSVDGEVWTQLDSDNYPSDPERLITFHYDIDDAVTAYKYYQFVFENTQPAGDSIGGDNGRLVQIGEIALLTEELEHHHHHH”, the “soluble on expression in E. coli” value is “not soluble”.
As to “MGSDKIHHHHHHMGSSRKVIITCAVTGAIHTPSMSPYLPVTPDEVAQASIGAAEAGAAVIHLHARDPRDGRPTQDPAAFAEFLPRIKSNTDAVINLTTGGSPHMTVEERLRPATHYMPELASLNMGSMNFGLYPMLERFKEFAHGWEREHLERSRDLVFKNTFADIEFILKTCGGNGTRFEFECYDTSHLYNLAHFVDRKLATPPFFVQTVFGLLGGIGPHPEDLAHMRRTADRLFGADYVWSILGAGRHQIPLASIGAAQGANVRVGLEDSLWIAPGELAETNAAQVRKIRQVIEGLSLEVASPAEARTMLGLKGPQNVNF”, the “soluble on expression in E. coli” value is “not soluble”.
With “MNQLQAEINAANAVFPVSDSTKIPKVSQKLFGLLGDGFFPQLHPKGLKIADNIAALFDQYNLKSIALKNFDLNLERKNDIVIQGKVCYSFSIK”, the “soluble on expression in E. coli” value was “not soluble”.
As for “MSLGNAMNITSCISQSECSCQLSESTSDTNSNSSFKTRSLGYDRSSQSLSISDVELGFKSVTETSSNNYRLRRIIESNDFFKDVMYKFFLLRENSLVLDQSKSYYSDKDPHYSIICSDYYVFALRRILIEGHHHHHH”, the “soluble on expression in E. coli” value is given as “not soluble”.
With “MFTHVESFKSAFLEKLETMYGKSFKDSTTRDQYNTLGYMVREYMNSQWIATNESYRSGERKQMYYLSIEFLLGRLLGSNILNLGIRDVCEQGLSELGISLQQLEEVEADAGLGNGGLGRLAACFLDSLASLDLPGHGCGIRYKHGLFDQKIVDGYQVEFPEQWLLHENVWEVRRHDQAVEVSYFGNVEPLYIDGRLEFRHTNAEVIMAVPYDVPVVGYETSTVNTLRLWNAEPVPFPQNCKDILKYKRETEAVSEFLYPDDTHDEGKILRLKQQYFLVSASLQNIVRLHRERYGDLRQLHEKIAIHINDTHPVLAIPELMRILLDEEKLAWEEAWHITTQTISYTNHTTLSEALEKWPIHIFKPLLPRIYMIIEEINERFCHELWERYPYEWHRIEEMAIIAHDLVKMAHLAIVGSHSVNGVAKIHTEILKQREMRLFYEFYPDKFNNKTNGIAHRRWLMKANPQLTNLISEAIGTEWKKEPIKLQELQLVQYDASFQEKFAEVKQERKEILAERIHNTMGITIDPNSIFDVQVKRLHAYKRQLLNVLHILYLYNRLKEDASFTFYPRTFIFGAKASPGYYYAKKIIKLINELARKVNNDPYVSQYMKVIFLENYRVSLAEDIFPAADVSEQISTASKEASGTGNMKFMMNGAITLGTLDGANIEIKDRVGDDNCFIFGLTAEEVLHYYQNGGYRASDYYHHNGHIKKVVDQLTNGFFAQSGAEFEAIYDSLVIQNDEYFVLRDFGPYAERQEAVGRAYENRTKWLEMSILNIAQSGHFASDRTILQYSNEIWGIGNTVTQI”, the “soluble on expression in E. coli” value is on record as “not soluble”.
With “AKDAAFTVDGLSLTSKTNTVSTAISGMTFDLVAPSAAGATTTVTVATNTDGLKASLQSFVDSYNTLATLVTSLTKGSISDKGVFTAAALTGDATPRALLATIRDQLAGASSRAGLSALSQLGIKTQQSNGTLSLDTATFTAALNDKKLGSQIQTMFTGTGATNADGTVDGGLVARMSKALLPYTKADGVLASKTSSLTKVQTRIASDQDALDRRIESLTASLTKKYNAMDLVVGQLKATATSITSIFEAMNAQKNAS”, the “soluble on expression in E. coli” value is listed as “not soluble”.
For “MSIKIGLLGFGTVASGMPFLLKENKDKITAASGTKLEIAKVLVKDDDEKKRLLAAGNDFNFVTNVDDILSDDDIAIVVELMGRIEPAKTFITKALEAGKHVVSANKDLIATHGKELIRLAQDKGVAFYYEAAVAGGIPILRTLANSLTSDKVTRILGVLNGTSNFMMTKMVDEGWTYEAALKKAQELGYAESDPTNDVEGIDAAYKAVILSQFGFGMTIDFDQVVHQGISSITPDDVAMAQQLGYVIKLVGSVEETPSGIFAEVSPTFLPKSHPLASVNDVMNAVFVESIGIGESMYYGPGAGQKPTATSVVADVIRIARRIKDGNVGKCFNEFIRETKIAHPDDVKSHYYFAINTADEKGKMLRLAEIFNSEDISFEQVLQQKANGEQARVVIITHSLSKSQLVNVTEKLQAVADFKLLNTFKVLGE”, the “soluble on expression in E. coli” value was “not soluble”.
On to “EFRKLGEVCESTNKKTLKISEVSEVKNKGMYPVINSGRDLYGYYHDFNNDGENITIASRGEYAGFINYFNEKFFAGGLCYPYKVKDTNELLTKFLYFYLKTNEIQIMENLVFRGSIPALNKADIETLTIPIPPLEIQQEIVKILDQFSA”, for which the “soluble on expression in E. coli” value is on record as “not soluble”.
Take “MKALIFAAGFGERMRPLTEHTPKPLLSVGGAPLIVWHLRKLAALGVDEAVINTSWLAEQFPQLLGDGSAYGLRLTYSYEGTTPLETGGGMLHALPLLGDAPFLLINGDIWTDFDFSRLSHAPKGLAELVLVDRPSYAARADFALDADGKVRVDLPATLTYSGIGMYRPALLRDWQSVNGPLPEQVGTAPRFALAPILRAKMAQGLIDGIHHPGRWTDVGTPQRLAALDAQLLGDGGLEHHHHHH”: the “soluble on expression in E. coli” value is “not soluble”.
As for “SVNYYKVLGVPRNASSSDIKRAFHQLALQVHPDKNPGDKEAAEEKFKQVAEAYHILSDAKKRKDYDRSRWNRNKGEIRGDGHDKGETIRVNDSRDETDWEEKICSRRPRHTFQKVTEDEDLFSGDCLFSGPITGSRRASSPFFTVTPIMDTGFSTFVSHESRSYSDDPETFVPYISQGMGKFRLVTTCSKTVNGKRVVTKRVVENIRGPKKIENERLFRHNPSRGWKLMENPCS”, the “soluble on expression in E. coli” value is “soluble”.
Consider “SNAMLFCDDSKKYLKEQNINLKNEFDKDDKRVEKFSLKHQNIYFDYSKNLINDYILKSLLESAEKSSLKDKIKQMFNGAKINSTEHRAVLHTALRDLSSTPLIVDGQDIRQEVTKEKQRVKELVEKVVSGRWRGFSGKKITDIVNIGIGGSDLGPKMVVRALQPYHCTDLKVHFVSNVDADSLLQALHVVDPETTLLIIASKSFSTEETLLNSISAREWLLDHYEDEKAVANHFVAISSKLDKVKEFGIDLEHCYKMWDWVGGRYSLWSSIGMSIAFAIGYDNFEKLLAGAYSVDKHFKETEFSKNIPVIMALLASYYSCTYNSQSQALLPYDERLCYFVDYLQQADMESNGKSVNIAGETVNYQTGVVLWGGVGTNGQHAFHQLLHQGNIFIPVDFIAIATSHHNYDNHQQALLANCFAQSQALMFGQSYDMVYNELLKSGLNETQAKELAAHKVIPGNRPSTTILLDELSPYSLGALIALYEHKIFVQGVLWDINSYDQWGVELGKKLGKNILKAMNDDSSDEYQNLDDSTRQLIAKVKNK”, for which the “soluble on expression in E. coli” value was “soluble”.
Turning to “MAHHHHHHMRSVWSGCRSIVSPPLWPLRLRHSVQVGAHGGHAFGMCSRSESVVSTFAMRVSLRWHGTTTPPSASPEGSSGAVHSVLSAAGHNDEEEASSSRSFRGTVRTVRLHNMPRTWLHEEVMQFLHQVAEHAGIDPPPEATQDNGTEGNANSKEYEEEDMTSAVPNVTSPFVARMHIPFGRRTGIVCGPPIIQLTSDALAGYLLNDLNFEPDDYRSRIYFTEVVNDKYHEATKMVNKDEAALLKMEQQEALESLELDRYLMAPDLLYDIAKMRQRRLVTRRSKLLLHTFADDDRPDEGEDGKDQSEVKDDDPTNENKRVRLRRHKKSKKTLRCVGEYKELGRGSVHSVPLALPYVQGRRGV”, the “soluble on expression in E. coli” value was “not soluble”.
For “MAHHHHHHMRKKKTKDVPTVFIECALEGEGEKLCVRWLFGMGVGGKPYDADEYDATIVWVPSDYAFHGDKFTSPLRPIPTKNPVAVVRIPVYLCRKKALRSCGGNPMLLSVYGSYGECCDVVFENERLSLLDRGFVWGFAAVCGGSELGAAWHKAGCGLQRATSVNDFVSVSFYVQETGWCAAGQIVTHGSSAGVFVATAAMCVAPSLPLAVIALVPCVDCLTTLMDDSLPLTVSNWEEFGNPRDDADAYRLLRAMLPMDNIPSVGVALPHMLLLTAWHDTRVGFWESLAFTARLRAREMEEGAATR”, the “soluble on expression in E. coli” value is “soluble”.

(Values after the DeepSol protein solubility set.)
